Data from publication PMC9363494.

Assays:
[1] = target: Y39E-α-syn (UniProt P37840)
[2] = target: full-length α-synuclein (UniProt P37840); assay: NMR titration; 1H-15N HSQC of 0.3 mM 15N-enriched FL- or CT-α-syn titrated with PDI (mole ratios 10:1 to 1:1, 0-300 μM PDI); 20 mM HEPES, 100 mM NaCl, 5 mM TCEP, pH 7.0, 10% D2O, 15 °C; KD from fits of the average CSPs of residues in segment 1 and in segment 2

elongation rate constant (k) of aggregation of Y39E-α-syn with PDI, thioflavin T fluorescence (without PDI: ND, plateau was not reached) [1]	half-time (t1/2) of aggregation of Y39E-α-syn with PDI, thioflavin T fluorescence (without PDI: ND, plateau was not reached) [1] [h]	lag time (tlag) of aggregation of Y39E-α-syn with PDI, thioflavin T fluorescence (without PDI: ND, plateau was not reached) [1] [h]	KD of segment 1 [2] [µM]	KD of segment 2 [2] [µM]	Substance
0.21	46	36			protein disulfide isomerase (from UniProt P07237 18-508) (enzyme)
			700	400	protein disulfide isomerase, P07237 18-508 (enzyme; other documents disagree on this pair)
